Measured values taken from PMC3762824.

Legend:
[1] = biological target: Argonaute 2 (human (endogenous in U937, U1, J1.1, HEK293T)) (UniProt Q9UKV8)
[2] = biological target: Argonaute 2 (human (endogenous in U937, U1, J1.1, HEK293T)) (UniProt Q9UKV8); remark: listed apart in the source

Sequence of UniProt Q9UKV8 (Q9UKV8 whole entry): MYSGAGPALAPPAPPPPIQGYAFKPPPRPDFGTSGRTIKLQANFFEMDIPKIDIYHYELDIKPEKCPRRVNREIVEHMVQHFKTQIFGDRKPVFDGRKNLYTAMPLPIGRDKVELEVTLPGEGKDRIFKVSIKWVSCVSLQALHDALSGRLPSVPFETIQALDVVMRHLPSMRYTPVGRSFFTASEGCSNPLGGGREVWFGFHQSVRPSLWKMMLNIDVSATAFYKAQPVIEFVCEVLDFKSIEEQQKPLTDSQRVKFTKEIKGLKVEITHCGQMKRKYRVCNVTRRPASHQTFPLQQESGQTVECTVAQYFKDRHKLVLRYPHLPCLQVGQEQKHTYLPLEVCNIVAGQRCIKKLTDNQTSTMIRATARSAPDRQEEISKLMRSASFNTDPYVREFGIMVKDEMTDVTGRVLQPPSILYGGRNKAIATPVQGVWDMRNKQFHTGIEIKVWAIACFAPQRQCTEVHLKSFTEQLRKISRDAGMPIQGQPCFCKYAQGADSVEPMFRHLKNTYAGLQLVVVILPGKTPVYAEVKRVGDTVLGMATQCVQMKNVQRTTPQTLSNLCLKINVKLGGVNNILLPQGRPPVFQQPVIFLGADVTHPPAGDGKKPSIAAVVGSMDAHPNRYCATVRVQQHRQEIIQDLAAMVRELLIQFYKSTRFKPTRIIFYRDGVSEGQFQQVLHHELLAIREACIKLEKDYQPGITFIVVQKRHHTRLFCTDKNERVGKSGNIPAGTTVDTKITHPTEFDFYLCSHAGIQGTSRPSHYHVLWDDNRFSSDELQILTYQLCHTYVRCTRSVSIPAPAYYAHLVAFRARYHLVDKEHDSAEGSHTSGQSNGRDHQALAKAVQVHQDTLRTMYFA

Substance | slicer assay: cleavage of 32P-labelled let-7a RNA by Ago2 immunoprecipitates from U937/Nef-EYFP cells compared to U937/EYFP cells [1] [%] | RLuc-let7a reporter luciferase activity against the empty vector, U937 or HEK293T cells co-transfected with the Nef expression vector [2] [%]
Nef-EYFP fusion protein (natural protein) | < 50 | –
wild type Nef (natural protein) | – | 70
